# Reference: the DeepSol protein solubility set
# Assay: soluble on expression in E. coli; label from the status in PepcDB or PDB records
row,Sequence,soluble on expression in E. coli
1,MKYGIVIFPPKRIQDFANSYRKRYDSHYALIPPHITLKYPFEADEEQIKKMAKELRRIAAETPPIPIKVTKFSSFYPTSNIIYLKVEPNDVLERLHEQLHSGLFAGKPEFVFVPHITIGRDLPGAEYADVYSQLKLQDVHFEETVDRFHLLYQLENGSWTVYETFIVGGKETV,soluble
2,MKYPPSLVSLIRELSRLPGIGPKSAQRLAFHLFEQPREDIERLASALLEAKRDLHVCPICFNITDAEKCDVCADPSRDQRTICVVEEPGDVIALERSGEYRGLYHVLHGVLSPMNGVGPDKLHIKPLLPRVGQGMEVILATGTTVEGDATALYLQRLLEPLGAAISRIAYGVPVGGSLEYTDEVTLGRALTGRQTVSKPQPPQRPGDEDGADGAAVPASRLEHHHHHH,soluble
3,MKYTIEEIRQMQEGQTFDCKSILIEPKHLATIIVAMANADGGMIAVGISDKTRRIEGVNQDKEHLNDILRTPLDFCVPSVSVTTDYVPCTDAEGRDNRVLLMHIPASPRLHANQADEVFWRVGDKSRKLTFDERLQLMYDKGERYYEDSTAYDATLDDIDMDAVKAYMKRIGYGKSAMEYLQENKGFVTYKGDVPQVSAACILLFGKHPQTFFPRARVRFIKYFGTEEKVGREMNVIKDVTFDGRILEQIQKTVEYLETQVKEHSYLGEDGIFKTDREYPKFVIQEMVVNSVCHRDYSIKGTEIQIKMFDDRLVFETPGKLPGIVRTDNIRHTHFSRNPKIAEFLKAYDYVKEFGEGVDRMCRELSALGVKEPQYNLVAFIMKATVCAKVLEERQGTNHFDQKRPESDQKSDQMRIILELIKSNPNISRTELSEKTGLHDSSVKRRLKTLVDEGLIQRVGPDKGGQWKVIGSLLEHHHHHH,soluble
4,MLAFGPVPSRRLGRSLGVNNIPAKICSYACVYCQIGKTLKMEVERRKFYEPERIYNDVSAKVKSGERIDYITFVPDGEPTLDINLGKEAEMLRDFGIKLAILTNSSLIWREDVREDLMNFDLVSLKLDAVSDDIWRKVNRPHKSLSLEKILEGMLDFRKEFKGTIITETMLINIDYGEELEKIATFLKELKPDKAYIAIPTRPPAESWVKPASEVIINKAYQLFSEALGEERVEYLIGYEGNAFAFTGNVEEDLLSITAVHPMREEAVRELLRKAGASWDVVEKMIKEGKLIELEYNGKKFYMRKLGSR,not soluble
5,MLAILYDRIRPDERMLFERAEALGLPYKKVYVPALPMVLGERPKELEGVTVALERCVSQSRGLAAARYLTALGIPVVNRPEVIEACGDKWATSVALAKAGLPQPKTALATDREEALRLMEAFGYPVVLKPVIGSWGRLLAKVTDRAAAEALLEHKEVLGGFQHQLFYIQEYVEKPGRDIRVFVVGERAIAAIYRRSAHWITNTARGGQAENCPLTEEVARLSVKAAEAVGGGVVAVDLFESERGLLVNEVNHTMEFKNSVHTTGVDIPGEILKYAWSLAS,soluble
6,MLAKVLKKRGAVLRGDFVLSSGRRSSVYIDMRRLLGDESSYSVALDLLLEVGGQDLARSSAVIGVATGGLPWAAMLALRLSKPLGYVRPERKGHGTLSQVEGDPPKGRVVVVDDVATTGTSIAKSIEVLRSNGYTVGTALVLVDRGEGAGELLARMGVRLVSVATLKTILEKLGWGGE,soluble
7,MLALFYNKKLFEQAGLTKPPETWDELLEYAKIITEKTGKPGLAIYLGGFNRYVPVAVSNGAPKPWFEKPEDASWFDNPVVRETLTWYINLYRKGKVEREKKGLPPYVVAPEDVGAGWLGDAFGQQKVAMVISGNWMIPFLADQFPNFKYGEDWDIAPLPAGKNGRVTMVYTVILGINSKTKHPKEAWKFVEFILGPRGQKELVVKAGQTLPSMKGFENDP,not soluble
8,MLAMKLGIVGLGGWVTGAHIPALTDLGIKVDYCADIDEKRVKDLSQKTGCKGYLDYKEMLRNENPDLVLVAVPHSLHAIIALDAINNDANVYVEKPMATSFQEALTLVEASRKRNKILVVGHENRFNPAMLIAKKLIRGGEVGKIYHMRGFYIRQRGIPTSPTFIKKDLAKGGAVFDIGTHIIDLLLFLSDFPTPKSVTGKTYNAFSEDKTKFSAYPSPNLPNFKVEVEDFGSAFLKLGDEISAYVEVSWASYIKENKMEVVILGDNGGIHIDNGVLNFMRNIEDELFISSPLTQQKGSVYREVWRTVMESISKGFPEYPLCSAEQGAIGVAILESIYKSALEGREVKIDIPQWFLKQFQPRALEHHHHHH,not soluble
9,MLCAQTFSEEDFRIRGYVDIHRLDTTIRLALIYSTTDNFVGEDMYGDFDKAYFEKGFAERIHQAQRLLRKEHPDYSLLIYDASRPISIQRRMYTLVKGTSKAVYVANGNRGGKHNYGVAVDLTIVDRDGKPLDMGTPVDHFGRAAHVGQEERLAADGLISREAVRNRRLLRRIMKSVGLVPYRREWWHYELPESMSHTRSHYRLLDF,not soluble
10,MLCRNTARTGCKFFRLYHSNPIEHVKPIHIKPLTYGKESPQYKVLSLALQKFVPEHGFSERSIVESLNELGYPSSMISSIGAPNSPSFFHSSTAVMELIKFQLVDKRYRLTEGINPDVTPQYKLPSLEHLLLKRLEMDKPIGGHLSELMSQLAIPSAFLFETAIPELHRLSDDMIYFSNEKDHHDSAWYAKRLAVSSTYIGSKLFMAQDKSHNYKETFTFAKDKLHRVMRLGEYYNNTEEFAWYTLMSTVNLIKSQLVRG,not soluble
11,MLDPRLSVAPMVDRTDRHFRFLVRQVSLGVRLYTEMTVDQAVLRGNRERLLAFRPEEHPIALQLAGSDPKSLAEAARIGEAFGYDEINLNLGCPSEKAQEGGYGACLLLDLARVREILKAMGEAVRVPVTVKMRLGLEGKETYRGLAQSVEAMAEAGVKVFVVHARSALLALSTKANREIPPLRHDWVHRLKGDFPQLTFVTNGGIRSLEEALFHLKRVDGVMLGRAVYEDPFVLEEADRRVFGLPRRPSRLEVARRMRAYLEEEVLKGTPPWAVLRHMLNLFRGRPKGRLWRRLLSEGRSLQALDRALRLMEEEVGEEGEKEKPGPRGQREAAPGPAREGV,soluble
12,MLEDPGGRPRVYVDVREERSPVPSILESLGVQVIPKQLPMGDYLVSDSIIVERKTSSDFAKSLFDGRLFEQASRLAEHYETVFIIVEGPPVPRRYRGRERSLYAAMAALQLDYGIRLMNTMDPKGTALVIESLARLSTREGGQRIVIHKKPRLSDVREWQLYILQSFPGIGRRTAERILERFGSLERFFTASKAEISKVEGIGEKRAEEIKKILMTPYK,soluble
13,MLEQPIGVIDSGVGGLTVAKEIMRQLPKENIIYVGDTKRCPYGPRPEEEVLQYTWELTNYLLENHHIKMLVIACNTATAIALDDIQRSVGIPVVGVIQPGARAAIKVTDNQHIGVIGTENTIKSNAYEEALLALNPDLKVENLACPLLVPFVESGKFLDQTADEIVKTSLYPLKDTSIDSLILGCTHYPILKEAIQRYMGEHVNIISSGDETAREVSTILSYKGLLNQSPIAPDHQFLTTGARDQFAKIADDWFGHEVGHVECISLQEPIKR,soluble
14,MLFIAFAPFGAFALEANSKNDGYSLDDIKYYKIFENEDIPKIMYALRQGDFEIIAELKNEWEIEEEDVSFEYTTSKNPLGELIRDNLYELGQKYEVFEDESDFVSKMNVWATAFTKSMMKKSSEQKDKLIVQTVNALDNLDETLNLFSERLREWYSLYFPEMDNIVKKHDIYVSLVSEYGDREEYTRTKLKKTMPSNVARTISLAAKESMGADVSEFDLKIMKNLADEIKSMYEYRESLQEYLETSMNEIAPNLTKVAGASLGARLISLAGGIERLLRLPASTIQVIGAEKALFAHLRERALPPKHGVIFQHPLIQGSPWWIHGKIARAISCKISIAIRADAFGNDISDMLIEDMNKKVAEIKEKFPEPTRKRRPRPDTRSFGNKGGQDRDRRSQGDRKPSGNRGDSKKGGKPFGKKPAGKDDRRDNRKGDRKPFGGKPKNSGNQPPKERSGEKRRDSTKKVKAERKVIGKTSSQNLEHHHHHH,soluble
15,MLFIIKYYEPKNLYEHILFILKHLCRSKSMILNPQKLSVDFGNGITATEPIIPRRYTLTHSDITAKLFLNIGLTYAYNKMTTMRDEVLGEWVKKSQDYSYQVFLHVDGRLGPKTTAIRNKIFRRELPLALEAIRYGDKRFFNAHPYLDNAPITVFFISTNPNFNKIENWGTFSDYNIESYYRNYKNVYLLDRKVGDVTGDDIPDTVSLYGEKEAPSEIFADDITVIITDGSTGNTTTITPEFNSGYNPTIFLGDFTKNRVYDIKISIDSGGSGGYGFFYIYSFMENTFREIFNFDAYNKEYKYKVDYDDLYKVNVGAITLNKLFILDISYKGYDVLSQYYYENGKLIKPVDGDVLALGALVPIVSNELLDFYNLLAFQRIIGTYNADTLGYVQNLLSWDGKNFTPSSTFVNISGSSLISPYLEHHHHHH,not soluble
16,MLGGSLYQVYAIKEAVKMGYYVITCDYLPNNPGHQYAHEYYNVSTTDKEAVYELAKRLQVDGVVAYASDPAAPTAAYVCEKLGLPTSPYTSVEILSQKDLFRRYLAEHNFNVPKYVGCSSYTEALEQIKNLTLPVMIKPVDSSGSKGINKLTNVDQLKDFIEDALSYSREKRIIIEEFIEKDGYQISGDAFSVDGILKFHCFGNEYYSSSVVKDFAPLGECWPFQMKPEIITELEKDIQRLISELKMGTTAYNVEAILGKNGKLYILELGARSGGSLIPQITELATGVNMVKYVIKAALGEDCSEIEMSPARGYWSNYMLHSKQTGRFKEISFDENFAKNNLVDCVTELKSGDNVHAFRDAGDALGTLILKYSSKEEMFNVIENMDQFVHIIID,not soluble
17,MLIELLISITVLASILVSCKKEKNEAAKLKPRGFDRKSSGAPAPAGANLVNKSGGSGGGSGGSGDANRLLKREIKEVKMEERSADDNETINDVKSNWGTV,not soluble
18,MLIKIAPSILSADFSKLGEEVLRIEKAGADLVHIDVMDGHFVPNITIGPPVVKSLKKVSKLPFDVHLMIENPDMYIESFADAGADIISVHAEACRHLHRTIQKIKQLGIKAAVALNPATPLCAVEWVMEDVDMILLMTVNPGFGGQKYINGVTRKIEELERIVESRGLNIDIEVDGGIDTETVQYVTKAGANVIVSGSTIFAAEDTAKIIQELRMNSYRK,not soluble
19,MLIKVKTLTGKEIEIDIEPTDTIDRIKERVEEKEGIPPVQQRLIYAGKQLADDKTAKDYNIEGGSVLHLVLALRGG,soluble
20,MLILSFLCPAFLNAQIVTDERMFSFEEPQLPACITGVQSQLGISGAHYKDGKHSLEWTFEPNGRLELRKDLKFEKKDPTGKDLYLSAFIVWIYNEQPQDAAIEFEFLKDGRKCASFPFGINFKGWRAAWVCYERDMQGTPEEGMNELRIVAPDAKGRLFIDHLITATKVDARQQTADLQVPFVNAGTTNHWLVLYKHSLLKPDIELTPVSDKQRQEMKLLEKRFRDMIYTKGKVTEKEAETIRKKYDLYQITYKDGQVSGVPVFMVRASEAYERMIPDWDKDMLTKMGIEMRAYFDLMKRIAVAYNNSEAGSPIRKEMRRKFLAMYDHITDQGVAYGSCWGNIHHYGYSVRGLYPAYFLMKDVLREEGKLLEAERTLRWYAITNEVYPKPEGNGIDMDSFNTQTTGRIASILMMEDTPEKLQYLKSFSRWIDYGCRPAPGLAGSFKVDGGAFHHRNNYPAYAVGGLDGATNMIYLFSRTSLAVSELAHRTVKDVLLAMRFYCNKLNFPLSMSGRHPDGKGKLVPMHYAIMAIAGTPDGKGDFDKEMASAYLRLVSSDSSSAEQAPEYMPKVSNAQERKIAKRLVENGFRAEPDPQGNLSLGYGCVSVQRRENWSAVARGHSRYLWAAEHYLGHNLYGRYLAHGSLQILTAPPGQTVTPTTSGWQQEGFDWNRIPGVTSIHLPLDLLKANVLNVDTFSGMEEMLYSDEAFAGGLSQGKMNGNFGMKLHEHDKYNGTHRARKSFHFIDGMIVCLGSDIENTNMDYPTETTIFQLAVTDKAAHDYWKNNAGEGKVWMDHLGTGYYVPVAARFEKNFPQYSRMQDTGKETKGDWVSLIIDHGKAPKAGSYEYAILPGTDRKTMTAFAKKPAYSVLQQDRNAHILESPSDRITSYVLFETPQSLLPGGLLQRTDTSCLVMVRKESADKVLLTVAQPDLALYRGPSDEAFDKDGKRMERSIYSRPWIDNESGEIPVTVTLKGRWKVVETPYCKVVSEDKKQTVLRFLCKDGASYEVELEKLEHHHHHH,soluble
